Reference: paper PMC11440508, “Dually Labeled Neurotensin NTS1R Ligands for Probing Radiochemical and Fluorescence-Based Binding Assays” (Journal of Medicinal Chemistry, 2024)
Starred links: 1 amine or outer side, 2 acyl side, 3 side chain; linkers in the order of their positions; H or OH if unused. Non-standard residues stand in square brackets, D forms with d. No end group written: not given here. *: point of attachment. 5‑TAMRA = CN(C)c1ccc2c(-c3ccc(C(=O)*)cc3C(=O)[O-])c3ccc(N(C)C)cc3[o+]c2c1; Propanoyl(3-triazol-4-yl) = O=C(CCc1cn([*:1])nn1)[*:2]; Gly(piperidin-4-yl) = N[C@H](C(=O)O)C1CCNCC1; Pent4ynoyl = C#CCCC(=O)*; Pra = C#CC[C@H](N)C(=O)O

Legend:
[1] = molecular target: T1, human neurotensin receptor type 1 (hNTS1R), endogenous in HT-29 colon carcinoma cells (human (endogenous in HT-29), UniProt P30989 1-418); experiment: radioligand binding; competition with [^3H]UR-MK300 at intact hNTS1R-expressing HT-29 cells, 23 ± 1 °C; pIC50 converted to pKi (Cheng–Prusoff); settings: one partner purified
T1 construct: human neurotensin receptor type 1 (hNTS1R), endogenously expressed in HT-29 colon carcinoma cells; also called HT-29 cells; source: endogenous, intact HT-29 colon carcinoma cells

[2] = molecular target: T2, human neurotensin receptor type 1 (hNTS1R), stably expressed in CHO cells (human, UniProt P30989 1-418); experiment: cell-based or functional assay
[3] = molecular target: T3, hNTS1R displayed on budded baculovirus particles (NTS1R-BBV) (human, UniProt P30989 1-418); experiment: fluorescence polarisation; fluorescence anisotropy, equilibrium binding: fixed ligand (0.3 or 1 nM), increasing amounts of hNTS1R-displaying BBVs, signal at 10 min, 27 °C, DPBS2; unspecific binding with 1 μM SR142948; settings: one partner purified
T3 construct: human neurotensin receptor type 1 (hNTS1R) from pcDNA3.1-hNTS1-NlucC, subcloned into pIMACE-CMVintP10; also called hNTS1R-displaying BBVs; hNTS1R-Nluc

[4] = molecular target: T3, hNTS1R displayed on budded baculovirus …; experiment: fluorescence polarisation; fluorescence anisotropy, association and dissociation (started with 1 μM SR142948) at hNTS1R-displaying BBVs, 27 °C, DPBS2; kon and Kd(kin) from a fit with koff constrained; settings: one partner purified
[5] = molecular target: T1, human neurotensin receptor type 1 …; experiment: high-content imaging (HCI) of fluorescent ligand on cells; equilibrium saturation binding at intact adherent CHO-hNTS1R or HT-29 cells, DPBS1 with 0.1% BSA, 23 ± 1 °C, washing step before reading; unspecific binding with 1 μM NT(8–13); settings: one partner purified
[6] = molecular target: T2, human neurotensin receptor type 1 …; experiment: as above; settings: one partner purified
[7] = molecular target: T2, human neurotensin receptor type 1 …; experiment: high-content imaging (HCI) of fluorescent ligand on cells; association (2.5 nM ligand) and dissociation (started with 1 μM NT(8–13)) at intact adherent CHO-hNTS1R cells, DPBS1, 23 ± 1 °C; kon = (kobs – koff)/[FL], Kd(kin) = koff/kon; settings: one partner purified
[8] = molecular target: T4, human neurotensin receptor type 2 (hNTS2R) in homogenates of HEK293T cells (human, UniProt O95665 1-410); experiment: radioligand binding; competition with [^3H]UR-MK300 at homogenates of HEK293T cells transiently transfected with hNTS2R; Tris buffer (50 mM Tris HCl, 1 mM EDTA, pH 7.4) with 0.1% BSA; settings: one partner purified
T4 construct: human neurotensin receptor type 2 (hNTS2R); also called HEK293T-hNTS2R cells; source: HEK293T, transiently transfected, homogenates

[9] = molecular target: T1, human neurotensin receptor type 1 …; experiment: flow cytometry on cells; equilibrium saturation binding at intact suspended CHO-hNTS1R or HT-29 cells, 96-well plates, DPBS1, 23 ± 1 °C, homogeneous; unspecific binding with 1 μM NT(8–13); settings: one partner purified
[10] = molecular target: T2, human neurotensin receptor type 1 …; experiment: as above; settings: one partner purified
[11] = molecular target: T2, human neurotensin receptor type 1 …; experiment: flow cytometry on cells; association (1 nM ligand) and dissociation (10 nM preincubation, started with ca. 25 μM NT(8–13)) at intact suspended CHO-hNTS1R cells, 5 mL tubes, DPBS1, 23 ± 1 °C; kon and Kd(kin) calculated; settings: one partner purified
[12] = molecular target: T2, human neurotensin receptor type 1 …; experiment: radioligand binding; association (1.8 nM [^3H]13, 1.2 nM [^3H]18; 96-well plates; biphasic fit) and dissociation (50 mL falcon tubes, started with 25 μM NT(8–13)) at intact suspended CHO-hNTS1R cells, DPBS1, 23 ± 1 °C; kon(fast) and Kd(kin) calculated; settings: one partner purified
[13] = molecular target: T2, human neurotensin receptor type 1 …; experiment: radioligand binding; saturation binding at membranes of CHO-hNTS1R cells, DPBS1 with 50 μM GppNHp and 100 μg/mL saponin, 23 °C; settings: one partner purified
[14] = molecular target: T2, human neurotensin receptor type 1 …; experiment: radioligand binding; saturation binding at intact suspended CHO-hNTS1R cells, 96-well plates, filtration, DPBS1 with 1% BSA, 23 ± 1 °C; settings: one partner purified
[15] = molecular target: T2, human neurotensin receptor type 1 …; experiment: radioligand binding; association (1.3 nM [^3H]13, 1.1 nM [^3H]18; biphasic fit) and dissociation (started with 1 μM NT(8–13)) at intact adherent CHO-hNTS1R cells, DPBS1, 23 ± 1 °C; kon(fast) and Kd(kin) calculated; settings: one partner purified
[16] = molecular target: T2, human neurotensin receptor type 1 …; experiment: radioligand binding; association (2.5 nM) and dissociation (12 nM preincubation, 30 min) at membranes of CHO-hNTS1R cells, DPBS1 with 50 μM GppNHp and 100 μg/mL saponin, 23 °C; kon and Kd(kin) calculated; settings: one partner purified
[17] = molecular target: T1, human neurotensin receptor type 1 …; experiment: radioligand binding; saturation binding at intact adherent cells (CHO-hNTS1R or HT-29), DPBS1 with 1% BSA, 23 ± 1 °C; radioligand 1:1 diluted with its cold analogue; settings: one partner purified
[18] = molecular target: T2, human neurotensin receptor type 1 …; experiment: as above; settings: one partner purified

T3 sequence (P30989 whole entry): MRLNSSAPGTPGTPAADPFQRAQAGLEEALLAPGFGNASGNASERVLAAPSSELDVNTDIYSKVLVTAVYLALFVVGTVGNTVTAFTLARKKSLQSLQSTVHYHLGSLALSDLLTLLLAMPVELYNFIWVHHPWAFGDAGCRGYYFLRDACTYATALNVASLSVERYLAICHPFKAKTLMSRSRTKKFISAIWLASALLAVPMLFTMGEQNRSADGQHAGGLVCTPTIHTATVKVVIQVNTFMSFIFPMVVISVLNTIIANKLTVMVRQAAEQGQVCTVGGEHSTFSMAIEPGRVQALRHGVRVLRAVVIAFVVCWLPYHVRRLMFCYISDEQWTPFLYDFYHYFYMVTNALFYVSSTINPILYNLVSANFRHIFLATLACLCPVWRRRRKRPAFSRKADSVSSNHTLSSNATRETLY
T2 sequence (P30989 whole entry): as above
T1 sequence (P30989 whole entry): as above
T4 sequence (O95665 whole entry): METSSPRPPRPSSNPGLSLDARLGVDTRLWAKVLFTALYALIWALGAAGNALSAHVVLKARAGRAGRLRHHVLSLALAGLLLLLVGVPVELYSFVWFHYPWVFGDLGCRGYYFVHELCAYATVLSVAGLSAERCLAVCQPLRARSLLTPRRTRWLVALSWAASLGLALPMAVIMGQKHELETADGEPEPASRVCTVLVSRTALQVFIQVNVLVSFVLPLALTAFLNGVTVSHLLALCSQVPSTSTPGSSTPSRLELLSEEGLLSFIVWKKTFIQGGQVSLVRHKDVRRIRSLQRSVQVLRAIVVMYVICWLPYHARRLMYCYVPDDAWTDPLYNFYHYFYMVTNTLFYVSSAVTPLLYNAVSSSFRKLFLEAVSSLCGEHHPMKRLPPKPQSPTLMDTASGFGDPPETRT

B1: N^α-(Pent-4-ynoyl)-2-(piperidin-4-yl)-Gly-Pro-N^ω-[(4-aminobutyl)aminocarbonyl]Arg-Arg-Pro-Tyr-Ile-Leu (6) (peptide)
chain: XPRRPYIL
modifications: N-terminal N^α-(pent-4-ynoyl); position 6 (X) = 2-(piperidin-4-yl)-Gly (pipGly); Arg8 = N^ω-[(4-aminobutyl)aminocarbonyl]Arg
Q: What does the source list for B1?
A: Ki [1]: 0.64 nM; EC50 of NTS1R agonism, Fura-2 Ca^2+ assay at CHO-NTS1R cells [2]: 0.0065 nM

B2: N^α-(Pent-4-ynoyl)-2-(piperidin-4-yl)-Gly-Pro-N^ω-[(4-aminobutyl)aminocarbonyl]Arg-Arg-Pro-β,β-dimethyl-L-Tyr-Ile-Leu (10a) (peptide)
chain: XPRRPYIL
modifications: N-terminal N^α-(pent-4-ynoyl); position 6 (X) = 2-(piperidin-4-yl)-Gly (pipGly); Arg8 = N^ω-[(4-aminobutyl)aminocarbonyl]Arg; position 11 = β,β-dimethyl-L-Tyr
Q: What does the source list for B2?
A: Ki [1]: 1.1 nM; EC50 of NTS1R agonism, Fura-2 Ca^2+ assay at CHO-NTS1R cells [2]: 0.32 nM

B3: 5-TAMRA-labeled, propionylated NT(6–13) derivative 13 (UR-FE051) (peptide)
chain: XPRRPYIL
modifications: N-terminus: 5-TAMRA attached through a 3-(1H-1,2,3-triazol-4-yl)propanoyl group; position 6 (X) = 2-(piperidin-4-yl)-Gly (pipGly); Arg8 = N^ω-[(4-(N-propanoyl)aminobutyl)aminocarbonyl]Arg
Q: With B3 as the binder, how does the Ki [1] read?
A: Its Ki is 1.1 nM.

Q: What about the Kd [3] of the same binder?
A: The Kd was 1.3 nM.

Q: And the Kd [4]?
A: The Kd was 1 nM.

Q: And the koff [4]?
A: Its koff is 0.0102 s⁻¹.

Q: What about the kon [4] of the same binder?
A: Its kon is 1.67e+07 M⁻¹ s⁻¹.

Q: And the Kd [5]?
A: The Kd was 4.7 nM.

Q: What about the Kd [6] of the same binder?
A: The Kd was 1.1 nM.

Q: What about the Kd [7] of the same binder?
A: Its Kd is 2.8 nM.

Q: What about the koff [7] of the same binder?
A: The koff was 0.000733 s⁻¹.

Q: What about the kon [7] of the same binder?
A: The kon was 267000 M⁻¹ s⁻¹.

Q: And the Ki [8]?
A: Its Ki is 2.4 nM.

Q: What about the “EC50 of NTS1R agonism, Fura-2 Ca^2+ assay at CHO-NTS1R cells” value [2] of the same binder?
A: Its value is 0.05 nM.

Q: And the Kd [9]?
A: The Kd was 0.25 nM.

Q: What about the Kd [10] of the same binder?
A: Its Kd is 2.6 nM.

Q: And the Kd [11]?
A: Its Kd is 0.041 nM.

Q: And the koff [11]?
A: Its koff is 0.000333 s⁻¹.

Q: What about the kon [11] of the same binder?
A: Its kon is 8e+06 M⁻¹ s⁻¹.

B4: 5-TAMRA-labeled, propionylated NT(6–13) derivative 16 (peptide)
chain: {4‑(N-propanoyl)aminobutanoyl}-X[Gly(piperidin-4-yl)]PRRPYIL
modifications: not fully specified (residue 1); printed as *N*^α^-[(4-(*N*-Propanoyl)aminobutanoyl)]-2-(1-(1-*N*-((1-carboxylato-2-(6-(dimethylamino)-3-(dimethyliminio)-3*H*-xanthen-9-yl)phen-5-yl)1-oxomethyl)aminoprop-3-yl-1*H*-1,2,3-triazol-4-yl)methyl)-Gly-2-(piperidin-4-yl)-Gly-Pro-Arg-Arg-Pro-Tyr-Ile-Leu
Q: Which Ki [1] does the source give for B4 here?
A: Its Ki is 0.77 nM.

B5: N^α-(Pent-4-ynoyl)-Lys-Pro-Arg-Arg-Pro-Tyr-Ile-Leu (7) (peptide)
peptide: Pent4ynoyl-KPRRPYIL
notes: neurotensin NT(6–13), printed in three-letter code; numbers count on: the mature neurotensin; also called peptide 7; source: synthetic peptide (SPPS, preparative HPLC)
Q: For B5, which Ki [1] is on record?
A: The Ki was 0.54 nM.

B6: [^3H]13, tritiated analogue of the 5-TAMRA-labeled peptide 13 (peptide)
chain: XPRRPYIL
modifications: as 13, with a [^3H]propionyl instead of the propionyl group at the N^ω-carbamoylated Arg8; N-terminal 5-TAMRA through a triazolylpropanoyl group; position 6 (X) = pipGly
Q: Which results are given for B6?
A: koff [12]: 0.0006 s⁻¹; Kd [13]: 6.2 nM; Kd [14]: 1.8 nM; koff [15]: 0.000233 s⁻¹; Kd [16]: 2.7 nM; koff [16]: 0.00617 s⁻¹; kon [16]: 2.17e+06 M⁻¹ s⁻¹; Kd [17]: 1.2 nM; Kd [18]: 1.3 nM

B7: [^3H]18, tritiated analogue of the Cy3B-labeled peptide 18 (peptide)
chain: XPRRPYIL
modifications: as 18, with a [^3H]propionyl instead of the propionyl group at the N^ω-carbamoylated Arg8; N-terminal Cy3B through a triazolylpropanoyl group; position 6 (X) = pipGly; position 11 = …
Q: With B7 as the binder, how does the koff [12] read?
A: The koff was 0.0005 s⁻¹.

Q: And the Kd [14]?
A: The Kd was 1.2 nM.

Q: And the koff [15]?
A: The koff was 0.000433 s⁻¹.

Q: What about the Kd [17] of the same binder?
A: The Kd was 1.9 nM.

Q: And the Kd [18]?
A: The Kd was 1.1 nM.

B8: N^α-(Pent-4-ynoyl)-D-Lys-Pro-Arg-Arg-Pro-Tyr-Ile-Leu (8) (peptide)
peptide: Pent4ynoyl-[dK]PRRPYIL
notes: neurotensin NT(6–13) with D-Lys at position 6, printed in three-letter code; numbers count on: the mature neurotensin; also called peptide 8; source: synthetic peptide (SPPS, preparative HPLC)
Q: How did the Ki [1] turn out when B8 was run?
A: The Ki was 0.85 nM.

Q: Which Ki [1] does the source give for {4‑aminobutanoyl}-[Pra][Gly(piperidin-4-yl)]PRRPYIL [N^α-(4-Aminobutanoyl)-2-(prop-2-ynyl)-Gly-2-(piperidin-4-yl)-Gly-Pro-Arg-Arg-Pro-Tyr-Ile-Leu (9)] here?
A: Its Ki is 0.33 nM.

B9: N^α-(Pent-4-ynoyl)-2-(piperidin-4-yl)-Gly-Pro-N^ω-[(4-aminobutyl)aminocarbonyl]Arg-Arg-Pro-β,β-dimethyl-D-Tyr-Ile-Leu (10b) (peptide)
chain: XPRRPYIL
modifications: N-terminal N^α-(pent-4-ynoyl); position 6 (X) = 2-(piperidin-4-yl)-Gly (pipGly); Arg8 = N^ω-[(4-aminobutyl)aminocarbonyl]Arg; position 11 = β,β-dimethyl-D-Tyr
Q: How did the Ki [1] turn out when B9 was run?
A: The Ki was 140 nM.

B10: 5-TAMRA-labeled, propionylated NT(6–13) derivative 14 (peptide)
peptide: {5‑TAMRA-Propanoyl(3-triazol-4-yl)}-K(propanoyl)PRRPYIL
notes: neurotensin NT(6–13), printed in three-letter code; numbers count on: the mature neurotensin; also called peptide 14; source: synthetic peptide (from 7 by propionylation and click reaction, preparative HPLC)
Q: How did the Ki [1] turn out when B10 was run?
A: The Ki was 1.5 nM.

B11: 5-TAMRA-labeled, propionylated NT(6–13) derivative 15 (peptide)
peptide: {5‑TAMRA-Propanoyl(3-triazol-4-yl)}-[dK](propanoyl)PRRPYIL
notes: neurotensin NT(6–13) with D-Lys at position 6, printed in three-letter code; numbers count on: the mature neurotensin; also called peptide 15; source: synthetic peptide (from 8 by propionylation and click reaction, preparative HPLC)
Q: Which Ki [1] does the source give for B11 here?
A: The Ki was 3 nM.
